Like-named read-outs stand apart in the source and are kept apart here.

The Kd is the concentration at which binding is half-saturated. Read a low Kd as a tighter complex. Usually EC50 stands for the concentration at which the effect is half-maximal. Low values mean a more potent agent, high ones a less potent agent. By koff is commonly meant the rate constant with which the complex falls apart. A low value points to slow dissociation. What is called kon is a measure of how fast the partners come together. A lower kon goes with slow association.

The target of assay [1] is SARS-Cov2 Spike Active Trimer SAT (R&D Systems; Catalog No. 10549-CV) (SARS-CoV-2) (UniProt P0DTC2). Put plainly: SPR (Carterra).
Assay [2] shares this target. Nature of the assay: SPR (Biacore).
The target is the same in assay [3].
The target is the same in assay [4]. Nature of the assay: ELISA, serially diluted purified Nb-Fc against SAT antigen. (ELISA stands for enzyme-linked immunosorbent assay.)
Assay [5] shares this target. This is another data set of the same source.
The target of assay [6] is SARS-COV-2 Spike(S) protein with an inactivated furin site, on HEK293-Spike cells (293-SARS2-S-dfur, (SARS-CoV-2) (UniProt P0DTC2)).

In assay [1], “human SAT Nb-Fc control VH-Ab-8 (HAb8-S) (Fc fusion)” returned a Kd of 37.3 nM. Moreover, the Kd in assay [2] came to 5.7 nM. Further, the Kd in assay [3] amounted to 19.8 nM. In addition, in assay [4], the EC50 is 0.018 nM. In assay [5], this substance displayed a Response of 0.489, a koff of 0.00294 s⁻¹ and a kon of 149000 M⁻¹ s⁻¹. Also, in assay [6], the GMFI (HEK293-Spike) turned out to be 430 and the GMFI Ratio over No 1st Ab control (HEK293-Spike) amounted to 21.1.

Values taken from patent US20260150817A1.
